{"source": "the RNAGym collection of RNA variant scans (doi:10.7554/elife.80360)", "parents": {"B1": {"name": "HDV Ribozyme (parent)", "chain": "GGCCGGCAUGGUCCCAGCCUCCUCGCUGGCGCCGGCUGGGCAACAUUCCGAGGGGACCGUCCCCUCGGUAAUGGCGAAUGGGACCCA"}}, "data": [{"variants_of": "B1", "assay": "self-cleavage, relative activity (ratio to wild type); higher = more cleavage; co-transcriptional", "values": [{"variant": "GGCCAGCAUAGUCCCAGCCUCCUCGCUGGCGCCGGCUGGGCAACAUUCCGAGGGGACCGUCCCCUCGGUAAUGGCGAAUGGGACCCA", "self-cleavage": 0.203}, {"variant": "GGCCAGCAUCGUCCCAGCCUCCUCGCUGGCGCCGGCUGGGCAACAUUCCGAGGGGACCGUCCCCUCGGUAAUGGCGAAUGGGACCCA", "self-cleavage": 0.308}, {"variant": "GGCCAGCAUGGUCCCAGCCUCCUCGCUGGCGCCGGCUGGGCAACAUUCCGAGGGGACCGUCCCCUCGGUAAUGCCGAAUGGGACCCA", "self-cleavage": 0.0923}, {"variant": "GGCCAGCAUGGUCCCAGCCUCCUCGCUGGCGCCGGCUGGGCAACAUUCCGAGGGGACCGUCCCCUCGGUUAUGGCGAAUGGGACCCA", "self-cleavage": 0.19}, {"variant": "GGCCAGCAUGGUCCCACCCUCCUCGCUGGCGCCGGCUGGGCAACAUUCCGAGGGGACCGUCCCCUCGGUAAUGGCGAAUGGGACCCA", "self-cleavage": 0.0594}, {"variant": "GGCCAGCAUGGUCCCAGCCUCCUCGCUGGCGCCGGCUGGGCAACAUUACGAGGGGACCGUCCCCUCGGUAAUGGCGAAUGGGACCCA", "self-cleavage": 0.0437}, {"variant": "GGCCAGCAUGGUCCCAGCCUCCUCGCUGGCGCCGGCUGGGCAACAUUGCGAGGGGACCGUCCCCUCGGUAAUGGCGAAUGGGACCCA", "self-cleavage": 0.101}, {"variant": "GGCCAGCAUGGUCCCAGCCUCCUCGCUGGCGCCGGCUGGGCAACAUUCCGAGGGGACCGUCCCCUCGGUAAUGGCGAAUGGGAGCCA", "self-cleavage": 0.0875}, {"variant": "GGCCAGCAUGGUCCCAGCGUCCUCGCUGGCGCCGGCUGGGCAACAUUCCGAGGGGACCGUCCCCUCGGUAAUGGCGAAUGGGACCCA", "self-cleavage": 0.0898}, {"variant": "GGCCAGCAUGGUCCCAGCCUCCUCGCUGGCGCCGGCUGGGCAACAUUCCAAGGGGACCGUCCCCUCGGUAAUGGCGAAUGGGACCCA", "self-cleavage": 0.192}, {"variant": "GGCCAGCAUGGUCCCAGCCUCCUCGCUGGCGCCGGCUGGGCAACAUUCCGAGGGGACCGUCCCCUCGAUAAUGGCGAAUGGGACCCA", "self-cleavage": 0.164}, {"variant": "GGCCAGCAUGGUCCCAGCCUCCUCGCUGGCGCCGGCUGGGCAACAUUCCGAGGGGACCGUCCCCUCGCUAAUGGCGAAUGGGACCCA", "self-cleavage": 0.17}, {"variant": "GGCCAGCAUGGUCCCAGCCUCCUCGCUGGCGCCGGCUGGGCAACAUUCCGAGGGUACCGUCCCCUCGGUAAUGGCGAAUGGGACCCA", "self-cleavage": 0.122}, {"variant": "GGCCAGCAUGGUCCCAGCCUCCUCGCUGGCGCCGGCUGGGCAACAUUCUGAGGGGACCGUCCCCUCGGUAAUGGCGAAUGGGACCCA", "self-cleavage": 0.18}, {"variant": "GGCCAGCAUGGUCCCAGCCUCCUCGCUGGCGCCGGCUGGGCAACAUUCAGAGGGGACCGUCCCCUCGGUAAUGGCGAAUGGGACCCA", "self-cleavage": 0.302}, {"variant": "GGCCAGCAUGGUCCCAGCCUCCGCGCUGGCGCCGGCUGGGCAACAUUCCGAGGGGACCGUCCCCUCGGUAAUGGCGAAUGGGACCCA", "self-cleavage": 0.0923}, {"variant": "GGCCAGCAUGGUCCCAGGCUCCUCGCUGGCGCCGGCUGGGCAACAUUCCGAGGGGACCGUCCCCUCGGUAAUGGCGAAUGGGACCCA", "self-cleavage": 0}, {"variant": "GGCCAGCAUGGUCCCAGUCUCCUCGCUGGCGCCGGCUGGGCAACAUUCCGAGGGGACCGUCCCCUCGGUAAUGGCGAAUGGGACCCA", "self-cleavage": 0}, {"variant": "GGCCAGCAUGGUCCCAGCCUCCUCGCUGGCGCCGGCUGGGCAACAUUCCGAGGGGACCGUCCGCUCGGUAAUGGCGAAUGGGACCCA", "self-cleavage": 0.0755}, {"variant": "GGCCAGCAUGGUCCCAGCCUCCUCGCUGGCGCCGGCUGGGCAACAUUCCGAGGGGACCGUCCACUCGGUAAUGGCGAAUGGGACCCA", "self-cleavage": 0.277}, {"variant": "GGCCAGCAUGGUCCCAGCCACCUCGCUGGCGCCGGCUGGGCAACAUUCCGAGGGGACCGUCCCCUCGGUAAUGGCGAAUGGGACCCA", "self-cleavage": 0.0437}, {"variant": "GGCCAGCAUGGUCCCAGCCGCCUCGCUGGCGCCGGCUGGGCAACAUUCCGAGGGGACCGUCCCCUCGGUAAUGGCGAAUGGGACCCA", "self-cleavage": 0.185}, {"variant": "GGCCAGCAUGUUCCCAGCCUCCUCGCUGGCGCCGGCUGGGCAACAUUCCGAGGGGACCGUCCCCUCGGUAAUGGCGAAUGGGACCCA", "self-cleavage": 0.0665}, {"variant": "GGCCAGCAUGGUCCCAGCCUCCUCGCUGGCGCCGGCUGGGCAACAUUCCGAGUGGACCGUCCCCUCGGUAAUGGCGAAUGGGACCCA", "self-cleavage": 0.309}, {"variant": "GGCCAGCAUGGUCCCAGCCUCCUCGCUGGCUCCGGCUGGGCAACAUUCCGAGGGGACCGUCCCCUCGGUAAUGGCGAAUGGGACCCA", "self-cleavage": 0.0332}, {"variant": "GGCCAGCAUGGUCCCAGCCUCCUCGCUGGCGCCGGCUGGGCAACAUUCCGAGGAGACCGUCCCCUCGGUAAUGGCGAAUGGGACCCA", "self-cleavage": 0.177}, {"variant": "GGCCAGCAUGGUCCCAGCCUCCUCGCUGGCGCCGGCUGGGCAACAUUCCGAGGGGACCGUCCCCUCGGUAAUGGCGAAUUGGACCCA", "self-cleavage": 0.0971}, {"variant": "GGCCAGCAUGGUCCCAGCCUCCUCGCUGGCGCCGGCUGGGCAACAUUCCGAGGGGACCGUCCCCUCGGUAAUGGCGAAUAGGACCCA", "self-cleavage": 0.143}, {"variant": "GGCCAGCAUGGUCCCAGCCUCCUCGCUGGCGCCGGCUGGGCAACAUUCCGAGGGGACCGUCCCCUCGGUAAUGGCGAAUGGGACCCC", "self-cleavage": 0.124}, {"variant": "GGCCAGCAUGGUCCCAGCCUCCUCGCUGGCGCCGGCUGGGCAACAUUCCGAGGGGACCGUCCCCUAGGUAAUGGCGAAUGGGACCCA", "self-cleavage": 0.173}, {"variant": "GGCCAGCAUGGUCCUAGCCUCCUCGCUGGCGCCGGCUGGGCAACAUUCCGAGGGGACCGUCCCCUCGGUAAUGGCGAAUGGGACCCA", "self-cleavage": 0.0475}, {"variant": "GGCCAGCAUGGUCCGAGCCUCCUCGCUGGCGCCGGCUGGGCAACAUUCCGAGGGGACCGUCCCCUCGGUAAUGGCGAAUGGGACCCA", "self-cleavage": 0.151}]}]}
